Test results as given in patent US12291570B2, “Treatment of metastatic pancreatic adenocarcinoma” (BioLineRx Ltd., priority 2018, dated 2025).
Square brackets hold non-standard residues; d marks the D form. Ends that are not written are not given here. 2Nal = N[C@@H](Cc1ccc2ccccc2c1)C(=O)O; Cit = NC(=O)NCCC[C@H](N)C(=O)O

What was measured:
[1] = tested on: metastatic pancreatic cancer; settings: metastatic/advanced pancreatic cancer; cited from earlier work
CXCR4 = CXCR4 (Homo sapiens, UniProt P61073); settings: read-out: IC50, binds to CXCR4 with high affinity; cited from earlier work
[2] = tested on: human keratinocytes and normal human hematopoietic cells; settings: cited from earlier work
[3] = tested on: metastatic pancreatic adenocarcinoma (PDAC); settings: cited from earlier work
[4] = Solubility of BL-8040 powder; format: physicochemical

CXCR4, sequence (P61073 whole entry, species assumed): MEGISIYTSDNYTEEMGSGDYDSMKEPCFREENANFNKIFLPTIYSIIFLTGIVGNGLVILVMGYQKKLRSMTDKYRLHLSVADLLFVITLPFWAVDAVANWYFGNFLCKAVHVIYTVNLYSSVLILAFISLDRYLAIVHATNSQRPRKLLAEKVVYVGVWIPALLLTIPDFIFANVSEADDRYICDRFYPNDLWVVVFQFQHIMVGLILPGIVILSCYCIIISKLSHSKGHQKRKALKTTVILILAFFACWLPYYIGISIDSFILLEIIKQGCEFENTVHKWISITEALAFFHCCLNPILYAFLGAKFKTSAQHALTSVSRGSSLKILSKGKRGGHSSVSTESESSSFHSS

| Substance | increase in median survival [1] [months] | IC50 (CXCR4) [nM] | effect on viability of human keratinocytes and normal human hematopoietic cells [2] | level of effector CD8 cells that express Granzyme B in the tumor microenvironment [3] | level of myeloid derived suppressor cells (MDSCs) in the tumor microenvironment [3] | solubility in 0.45% Sodium Chloride (half normal saline) ([4]; 0.45% Sodium Chloride) | solubility in water ([4]; water) |
| --- | --- | --- | --- | --- | --- | --- | --- |
| FOLFIRINOX | 4.3 |  |  |  |  |  |  |
| BL-8040 (RR[2Nal]CY[Cit]K[dK]PYR[Cit]CR-NH2; not fully specified (residue 1, N-terminus, bridges); cysteine pairing not given here) |  | 0.54 to 4.5 | did not affect the viability | increasing | decreasing | freely soluble | freely soluble |
